Source: patent US20150010538A1 (AbbVie / Abbott, published 2015)
Substitutions are numbered along the chain they refer to. Numbers in names are those of the source. Read-outs that look alike come from different tables or passages of the source. One block for each binder: values may come before it.

Key:
[1] = target: T1, recombinant human CD25 (IL2-Rα) (human, UniProt P01589 22-213, limits assumed); assay: competition ELISA: binding of biotinylated wild type daclizumab IgG to CD25 in the presence of titrated competitor Fab, O.D. 415
T1 construct: Bought recombinant soluble protein; also called IL2 receptor α chain; recombinant soluble human CD25
T1 sequence (looked up): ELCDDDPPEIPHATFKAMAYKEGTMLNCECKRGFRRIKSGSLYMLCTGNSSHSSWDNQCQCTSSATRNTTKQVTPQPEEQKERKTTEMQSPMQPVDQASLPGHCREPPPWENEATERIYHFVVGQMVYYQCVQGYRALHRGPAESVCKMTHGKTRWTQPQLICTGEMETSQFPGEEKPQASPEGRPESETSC
Method: Wells of 96-well ELISA plates (Nunc-Immuno MaxiSorp plates, Nalge Nunc, Rochester, N.Y.) were coated with 100 μL of 0.2 μg/mL CD25 (Pepro Tech Inc., Rocky Hill, N.J.) in 0.2 M sodium carbonate-bicarbonate buffer (pH 9.4, Pierce, Rockford, Ill.) overnight at 4° C. After washing with Wash Buffer, wells were blocked with 200 μL of Superblock Blocking Buffer (Pierce, Rockford, Ill.) for 30 min and then washed. […] The plate was then washed with washing buffer three times. After washing, 100 μL of 1 μg/mL HRP-conjugated Streptavidin (Pierce) diluted in ELISA buffer was added to each well. After 30 minutes of incubation at room temperature, plates were washed and bound antibodies were detected by addition of ABTS substrate (Kirkegaard & Perry Laboratories, Gaithersburg, Md.). […] Binding inhibition curves were fitted using nonlinear regression with the software [sequence]

[2] = target: T1, recombinant human CD25 (IL2-Rα); assay: ELISA competition assay on CD25 (format of Section 6.3.1.1: competitor antibody titrated against biotinylated daclizumab on plate-coated CD25), OD415
Method: (§1) Wells of 96-well ELISA plates (Nunc-Immuno MaxiSorp plates, Nalge Nunc, Rochester, N.Y.) were coated with 100 μL of 0.2 μg/mL CD25 (Pepro Tech Inc., Rocky Hill, N.J.) in 0.2 M sodium carbonate-bicarbonate buffer (pH 9.4, Pierce, Rockford, Ill.) overnight at 4° C. After washing with Wash Buffer, wells were blocked with 200 μL of Superblock Blocking Buffer (Pierce, Rockford, Ill.) for 30 min and then washed. […] The plate was then washed with washing buffer three times. After washing, 100 μL of 1 μg/mL HRP-conjugated Streptavidin (Pierce) diluted in ELISA buffer was added to each well. After 30 minutes of incubation at room temperature, plates were washed and bound antibodies were detected by addition of ABTS substrate (Kirkegaard & Perry Laboratories, Gaithersburg, Md.). […] PRISM (GraphPad, San Diego) and reported as IC₅₀ wild type/IC₅₀ mutant (fold improvement over wild type control).

[3] = target: T1, recombinant human CD25 (IL2-Rα); assay: as above; remark: listed apart in the source
Method: as §1

[4] = target: T1, recombinant human CD25 (IL2-Rα); assay: competitive ELISA on plate-coated CD25; competitor biotinylated daclizumab
Method: as §1

[5] = target: T1, recombinant human CD25 (IL2-Rα); assay: competition ELISA on plate-coated CD25; competitor biotinylated daclizumab
Method: as §1

- fold affinity over the parental antibody [4]: ~10 fold
B3: daclizumab VH variant RRGFE (antibody, IgG1, name in Kabat numbering, V domains shown)
VH: QVQLVQSGAEVKKPGSSVKVSCKASGYTFTSYRMHWVRQAPGQGLEWIGYIRPRGGFTEYNQKFKDKATITADESTNTAYMELSSLRSEDTAVYYCARGGGVFDYWGQGTLVTVSS
VL: DIQMTQSPSTLSASVGDRVTITCSASSSISYMHWYQQKPGKAPKLLIYTTSNLASGVPARFSGSGSGTEFTLTISSLQPDDFATYYCHQRSTYPLTFGQGTKVEVK
notes: VH library clone, soluble IgG1

- fold affinity over the parental antibody [4]: ~10 fold
B4: daclizumab VH variant SNKYL (antibody, IgG1, name in Kabat numbering, V domains shown)
VH: B3 VH with R52S, R54N, G55K, F57Y, E59L
VL: B3 VL
notes: as for B3

- fold affinity over the parental antibody [4]: ~10 fold
B5: daclizumab VH variant RKGFE (antibody, IgG1, name in Kabat numbering, V domains shown)
VH: B3 VH with R54K
VL: B3 VL
notes: as for B3

- fold improvement in binding over daclizumab [5]: ~2 fold
B6: daclizumab VL S29R-S31T (antibody, IgG1, V domains shown)
VH: B3 VH with R52N, R54S, G55T, F57Y
VL: B3 VL with S28R, S30T
notes: Soluble IgG1/kappa; also called R29T31

- fold affinity over the parental antibody [4]: ~10 fold
B9: daclizumab VH variant RRKFE (antibody, IgG1, name in Kabat numbering, V domains shown)
VH: B3 VH with G55K
VL: B3 VL
notes: as for B3

- fold affinity over the parental antibody [4]: ~10 fold
B11: daclizumab VH variant RKGFN (antibody, IgG1, name in Kabat numbering, V domains shown)
VH: B3 VH with R54K, E59N
VL: B3 VL
notes: as for B3

The next lines start with the binder.

B1: VSR-SN Fab (Fab, V domains shown)
VH: B3 VH with R52V, R54S, G55R, F57Y
VL: B3 VL
notes: also called VSR-SN in Fab; copies: 1 + 1
- IC50 (read off the curve) [1]: ~30 nM

B2: NuhuTac (rehumanized anti-Tac) (antibody, V domains shown)
VH: B3 VH with Q1E, S16A, R52N, R54S, G55T, F57Y, I70M, E74K, T76I, N77S
VL: EIVLTQSPATLSLSPGERATLTCSASSSISYMHWFQQKPGQAPRLLIYTTSNLASGIPARFSGSGSGTDYTLTISSLEPEDFAVYYCHQRSTYPLTFGQGTKVEIK
notes: VH on human framework R3.5H5G, VL on ka3d1; N-terminal Glu in VH; also called rehumanized antibody
- EC50 [2]: 0.49 µg/mL
- EC50 [3]: 0.71 µg/mL

B7: NuhuTacVH with daclizumabVL (antibody, V domains shown)
VH: B3 VH with Q1E, S16A, R52N, R54S, G55T, F57Y, I70M, E74K, T76I, N77S
VL: B3 VL
- EC50 [2]: 0.47 µg/mL

B8: daclizumab VH and NuhuTacVL (antibody, V domains shown)
VH: B3 VH with R52N, R54S, G55T, F57Y
VL: B2 VL
- EC50 [2]: 1.18 µg/mL

B10: daclizumab VH variant QRKFH (antibody, IgG1, name in Kabat numbering, V domains shown)
VH: B3 VH with R52Q, G55K, E59H
VL: B3 VL
notes: as for B3
- fold affinity over the parental antibody [4]: ~10 fold
